We go through 3 molecules from article PMC3763545 (Nucleic Acids Research, 2013).

B1: human full-length SLIP1 (natural protein, UniProt A9UHW6 1-222, looked up)
chain: MGEPSREEYKIQSFDAETQQLLKTALKDPGAVDLEKVANVIVDHSLQDCVFSKEAGRMCYAIIQAESKQAGQSVFRRGLLNRLQQEYQAREQLRARSLQGWVCYVTFICNIFDYLRVNNMPMMALVNPVYDCLFRLAQPDSLSKEEEVDCLVLQLHRVGEQLEKMNGQRMDELFVLIRDGFLLPTGLSSLAQLLLLEIIEFRAAGWKTTPAAHKYYYSEVSD
B2: human DBP5 residues 1-51 (domain or fragment, UniProt Q9UMR2 1-51, looked up)
chain: MATDSWALAVDEQEAAAESLSNLHLKEEKIKPDTNGAVVKTNANAEKTDEE

What all share (test): ITC
A general note: In ITC the heat of successive injections is recorded.

Assay [1] deals with zebrafish (Danio rerio) full-length SLIP1 (zebrafish (Danio rerio)).
For assay [2], the target named is T1, human DBP5 f.l. (residues 1-479) (human, UniProt Q9UMR2 1-479).
T1 sequence (looked up): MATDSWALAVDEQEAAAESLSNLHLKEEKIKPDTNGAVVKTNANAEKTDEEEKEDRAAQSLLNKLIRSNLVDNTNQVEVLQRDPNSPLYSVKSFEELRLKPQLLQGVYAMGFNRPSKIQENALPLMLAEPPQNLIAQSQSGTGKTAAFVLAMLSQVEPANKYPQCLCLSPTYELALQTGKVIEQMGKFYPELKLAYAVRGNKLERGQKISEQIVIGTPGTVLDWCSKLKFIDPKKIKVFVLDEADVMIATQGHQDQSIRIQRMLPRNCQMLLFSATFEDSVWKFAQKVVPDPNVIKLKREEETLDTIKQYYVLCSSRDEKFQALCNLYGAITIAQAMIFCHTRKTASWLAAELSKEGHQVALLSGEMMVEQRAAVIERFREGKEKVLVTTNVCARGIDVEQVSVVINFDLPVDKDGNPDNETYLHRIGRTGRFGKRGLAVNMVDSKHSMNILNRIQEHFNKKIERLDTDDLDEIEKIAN

For assay [3], the target named is B1.

What is called Kd is a measure of binding affinity in units of concentration. Read a high Kd as a looser complex. “zebrafish DBP5 residues 1-32 (domain or fragment)” returned a dissociation constant (Kd) in assay [1] of 2000 nM.
B1 returned an equilibrium dissociation constant (Kd) in assay [2] of 100 nM.
As for B2, in assay [3], the dissociation constant Kd was around 1100 nM.
